Legend:
Experiment in all cases: ITC; LCMT-1 preloaded with SAH
[1] = biological target: PP2A catalytic Cα-subunit (free PP2Ac) ( ("mammalian PP2Ac"), UniProt P67775 1-309)
[2] = biological target: PP2A core enzyme (A–C heterodimer), unmethylated ( |  ("mammalian …, UniProt P30153 1-589; P67775 1-309)
[3] = biological target: methylated PP2A core enzyme (methylated AC heterodimer) ( |  ("mammalian …, UniProt P30153 1-589)); P67775 1-309, carboxyl methylation of the last leucine residue (Leu-309))
Sequence of methylated PP2A core enzyme (methylated AC heterodimer) ( |  (P30153 whole entry, chain 1 of 2): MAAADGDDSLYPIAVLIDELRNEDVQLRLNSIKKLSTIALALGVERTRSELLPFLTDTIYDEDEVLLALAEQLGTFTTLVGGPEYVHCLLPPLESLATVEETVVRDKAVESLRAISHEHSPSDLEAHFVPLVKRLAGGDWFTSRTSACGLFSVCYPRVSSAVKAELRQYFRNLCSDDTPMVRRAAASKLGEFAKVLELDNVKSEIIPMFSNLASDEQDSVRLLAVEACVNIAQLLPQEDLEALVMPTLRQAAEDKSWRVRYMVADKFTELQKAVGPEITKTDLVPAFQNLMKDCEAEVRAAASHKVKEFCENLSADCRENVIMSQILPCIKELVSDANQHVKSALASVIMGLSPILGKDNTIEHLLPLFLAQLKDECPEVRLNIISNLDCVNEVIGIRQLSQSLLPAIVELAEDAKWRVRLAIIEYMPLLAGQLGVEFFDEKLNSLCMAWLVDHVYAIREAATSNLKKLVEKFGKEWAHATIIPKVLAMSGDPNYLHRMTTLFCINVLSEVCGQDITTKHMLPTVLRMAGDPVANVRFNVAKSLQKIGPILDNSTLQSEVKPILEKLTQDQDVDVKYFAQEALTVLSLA
Sequence of methylated PP2A core enzyme (methylated AC heterodimer) ( |  (P67775 whole entry, chain 2 of 2): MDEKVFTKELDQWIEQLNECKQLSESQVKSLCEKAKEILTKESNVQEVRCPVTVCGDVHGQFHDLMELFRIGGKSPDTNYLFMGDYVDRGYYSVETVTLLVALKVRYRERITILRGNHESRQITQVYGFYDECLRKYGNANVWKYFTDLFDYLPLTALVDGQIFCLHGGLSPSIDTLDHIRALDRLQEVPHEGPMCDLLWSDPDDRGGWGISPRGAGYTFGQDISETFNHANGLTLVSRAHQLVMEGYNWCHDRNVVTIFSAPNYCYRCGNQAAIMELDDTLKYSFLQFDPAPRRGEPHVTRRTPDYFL

Sequence of PP2A core enzyme (A–C heterodimer), unmethylated ( |  (P30153 whole entry, chain 1 of 2): as the sequence (P30153 whole entry, chain 1 of 2) above
Sequence of PP2A core enzyme (A–C heterodimer), unmethylated ( |  (P67775 whole entry, chain 2 of 2): as the sequence (P67775 whole entry, chain 2 of 2) above
Sequence of PP2A catalytic Cα-subunit (free PP2Ac) (P67775 whole entry): as the sequence (P67775 whole entry, chain 2 of 2) above

Kd [1]: 560 nM
Kd [2]: 140 nM
Kd [3]: 630 nM
B1: PP2A-specific leucine carboxyl methyltransferase 1 (LCMT-1) (enzyme)
chain: MATRQRESSITSCCSTSSCDADDEGVRGTCEDASLCKRFAVSIGYWHDPYIQHFVRLSKERKAPEINRGYFARVHGVSQLIKAFLRKTECHCQIVNLGAGMDTTFWRLKDEDLLPSKYFEVDFPMIVTRKLHSIKCKPPLSSPILELHSEDTLQMDGHILDSKRYAVIGADLRDLSELEEKLKKCNMNTQLPTLLIAECVLVYMTPEQSANLLKWAANSFERAMFINYEQVNMGDRFGQIMIENLRRRQCDLAGVETCKSLESQKERLLSNGWETASAVDMMELYNRLPRAEVSRIESLEFLDEMELLEQLMRHYCLCWATKGGNELGLKEITY

Source: paper PMC3900686 (2014)
